Data: patent US20230184768A1 (MESO SCALE TECHNOLOGIES, published 2023)

Target: T1, labeled ACE2 (angiotensin-converting enzyme 2) (human, UniProt Q9BYF1 18-740)
T1 construct: also called ACE2 detection reagent
Assay: labeled ACE2 on immobilized Mixed Panel, ECL

T1 sequence (Q9BYF1 18-740 limits assumed): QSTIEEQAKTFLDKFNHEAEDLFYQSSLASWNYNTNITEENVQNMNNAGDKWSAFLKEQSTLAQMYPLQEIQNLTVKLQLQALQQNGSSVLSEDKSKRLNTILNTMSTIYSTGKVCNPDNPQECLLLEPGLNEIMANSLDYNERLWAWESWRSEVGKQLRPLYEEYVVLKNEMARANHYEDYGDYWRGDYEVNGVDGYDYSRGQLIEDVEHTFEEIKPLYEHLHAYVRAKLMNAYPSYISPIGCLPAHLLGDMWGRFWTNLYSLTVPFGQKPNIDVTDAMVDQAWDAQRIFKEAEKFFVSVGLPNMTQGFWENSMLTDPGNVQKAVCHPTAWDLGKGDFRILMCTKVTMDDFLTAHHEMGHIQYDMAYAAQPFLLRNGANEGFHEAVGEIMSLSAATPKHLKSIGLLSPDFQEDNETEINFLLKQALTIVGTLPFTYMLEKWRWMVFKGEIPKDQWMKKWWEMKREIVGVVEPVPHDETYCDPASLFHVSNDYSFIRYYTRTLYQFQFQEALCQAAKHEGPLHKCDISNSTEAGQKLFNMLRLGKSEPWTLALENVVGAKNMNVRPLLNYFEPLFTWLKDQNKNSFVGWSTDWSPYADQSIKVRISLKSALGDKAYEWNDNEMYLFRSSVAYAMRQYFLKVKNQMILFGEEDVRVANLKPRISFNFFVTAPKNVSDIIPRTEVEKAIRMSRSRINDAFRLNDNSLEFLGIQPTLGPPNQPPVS

B1: HCoV-HKU1 S protein (other)
chain: AVIGDFNCTNFAINDLNTTVPRISEYVVDVSYGLGTYYILDRVYLNTTILFTGYFPKSGANFRDLSLKGTTYLSTLWYQKPFLSDFNNGIFSRVKNTKLYVNKTLYSEFSTIVIGSVFINNSYTIVVQPHNGVLEITACQYTMCEYPHTICKSKGSSRNESWHFDKSEPLCLFKKNFTYNVSTDWLYFHFYQERGTFYAYYADSGMPTTFLFSLYLGTLLSHYYVLPLTCNAISSNTDNETLQYWVTPLSKRQYLLKFDNRGVITNAVDCSSSFFSEIQCKTKSLLPNTGVYDLSGFTVKPVATVHRRIPDLPDCDIDKWLNNFNVPSPLNWERKIFSNCNFNLSTLLRLVHTDSFSCNNFDESKIYGSCFKSIVLDKFAIPNSRRSDLQLGSSGFLQSSNYKIDTTSSSCQLYYSLPAINVTINNYNPSSWNRRYGFNNFNLSSHSVVYSRYCFSVNNTFCPCAKPSFASSCKSHKPPSASCPIGTNYRSCESTTVLDHTDWCRCSCLPDPITAYDPRSCSQKKSLVGVGEHCAGFGVDEEKCGVLDGSYNVSCLCSTDAFLGWSYDTCVSNNRCNIFSNFILNGINSGTTCSNDLLQPNTEVFTDVCVDYDLYGITGQGIFKEVSAVYYNSWQNLLYDSNGNIIGFKDFVTNKTYNIFPCYAGRVSAAFHQNASSLALLYRNLKCSYVLNNISLTTQPYFDSYLGCVFNADNLTDYSVSSCALRMGSGFCVDYNSPSSSSSRRKRRSISASYRFVTFEPFNVSFVNDSIESVGGLYEIKIPTNFTIVGQEEFIQTNSPKVTIDCSLFVCSNYAACHDLLSEYGTFCDNINSILDEVNGLLDTTQLHVADTLMQGVTLSSNLNTNLHFDVDNINFKSLVGCLGPHCGSSSRSFFEDLLFDKVKLSDVGFVEAYNNCTGGSEIRDLLCVQSFNGIKVLPPILSESQISGYTTAATVAAMFPPWSAAAGIPFSLNVQYRINGLGVTMDVLNKNQKLIATAFNNALLSIQNGFSATNSALAKIQSVVNSNAQALNSLLQQLFNKFGAISSSLQEILSRLDALEAQVQIDRLINGRLTALNAYVSQQLSDISLVKFGAALAMEKVNECVKSQSPRINFCGNGNHILSLVQNAPYGLLFMHFSYKPISFKTVLVSPGLCISGDVGIAPKQGYFIKHNDHWMFTGSSYYYPEPISDKNVVFMNTCSVNFTKAPLVYLNHSVPKLSDFESELSHWFKNQTSIAPNLTLNLHTINATFLDLYYEMNLIQES
notes: also called HCoV-HKU1 spike protein
  binding result: no binding
